Two substances from patent publication US20230203117A1 can be followed below.

For the test, the target named is IL-10Rβ on human primary monocytes and CD8 T cells (human) (UniProt Q08334). The test can be described thus: cell-based or functional assay.
Chain of IL-10Rβ on human primary monocytes and CD8 T cells (human) (Q08334 20-325): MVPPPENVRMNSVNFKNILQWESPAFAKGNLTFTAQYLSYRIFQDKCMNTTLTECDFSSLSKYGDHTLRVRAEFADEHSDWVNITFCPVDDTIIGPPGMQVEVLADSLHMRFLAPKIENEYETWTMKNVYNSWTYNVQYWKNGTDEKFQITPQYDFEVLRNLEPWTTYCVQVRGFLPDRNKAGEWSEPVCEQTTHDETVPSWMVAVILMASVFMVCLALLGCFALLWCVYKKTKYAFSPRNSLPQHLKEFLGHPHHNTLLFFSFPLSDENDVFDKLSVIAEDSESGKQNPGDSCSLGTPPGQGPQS

Chain of wild type IL-10 dimer (WTD) (P22301 other isoform, or with tags, fused parts or gaps): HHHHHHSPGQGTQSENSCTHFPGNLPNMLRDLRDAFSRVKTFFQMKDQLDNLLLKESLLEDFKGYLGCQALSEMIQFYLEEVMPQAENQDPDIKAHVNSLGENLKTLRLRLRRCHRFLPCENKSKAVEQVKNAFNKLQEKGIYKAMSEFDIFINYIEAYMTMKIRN

“wild type IL-10 dimer (WTD) (from UniProt P22301 19-178) (ligand)”: the granzyme B production in CD8 T cells, flow cytometry turned out to be 2.5 fold and the reduction of HLA-DR surface levels in human primary monocytes stood at 50%.
As to “wild type monomeric IL-10 (WTM), recombinant (ligand)”, the pSTAT1 and pSTAT3 in human CD8 T cells, amplitude of activation (% of the dimeric molecules) was under 25; the pSTAT1 and pSTAT3 in human monocytes, amplitude of activation (percentage of WTD) was under 50; the reduction of HLA-DR surface levels in human primary monocytes is 20%.
